Measurements taken from article PMC3173232.

Experiments:
XLF FL;XRCC4(1-140) = XLF FL;XRCC4(1-140) (Homo sapiens;Homo sapiens, UniProt Q9H9Q4;Q13426 1-299;1-140, |); assay: SAXS titration
XLF(1-224);XRCC4(1-140) = XLF(1-224);XRCC4(1-140) (Homo sapiens;Homo sapiens, UniProt Q9H9Q4;Q13426 1-224;1-140, |); assay: SAXS titration
XLF(1-248) = XLF(1-248) (Homo sapiens, UniProt Q9H9Q4 1-248); assay: tryptophan fluorescence quenching
XRCC4 FL = XRCC4 FL (Homo sapiens, UniProt Q13426 1-336); assay: tryptophan fluorescence quenching
XRCC4 FL, sequence (Q13426 whole entry): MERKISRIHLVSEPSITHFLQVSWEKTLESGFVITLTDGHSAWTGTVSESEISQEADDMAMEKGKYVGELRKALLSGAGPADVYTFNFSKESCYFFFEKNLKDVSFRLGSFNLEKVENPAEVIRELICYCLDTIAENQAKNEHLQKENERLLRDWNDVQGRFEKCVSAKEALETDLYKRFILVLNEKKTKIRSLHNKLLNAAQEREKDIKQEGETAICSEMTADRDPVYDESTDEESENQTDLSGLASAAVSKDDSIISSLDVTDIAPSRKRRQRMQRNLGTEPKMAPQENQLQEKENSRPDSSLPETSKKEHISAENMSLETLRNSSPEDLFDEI

XLF FL = XLF FL (Homo sapiens, UniProt Q9H9Q4 1-299); assay: tryptophan fluorescence quenching
XLF FL, sequence (Q9H9Q4 whole entry): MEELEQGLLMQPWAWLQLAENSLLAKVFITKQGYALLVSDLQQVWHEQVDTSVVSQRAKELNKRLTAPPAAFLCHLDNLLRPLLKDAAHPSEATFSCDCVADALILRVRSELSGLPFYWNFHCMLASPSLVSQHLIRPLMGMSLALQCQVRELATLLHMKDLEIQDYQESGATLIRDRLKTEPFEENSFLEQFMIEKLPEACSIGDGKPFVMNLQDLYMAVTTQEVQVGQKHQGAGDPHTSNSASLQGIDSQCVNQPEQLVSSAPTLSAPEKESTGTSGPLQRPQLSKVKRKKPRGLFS

[1] = target: Ku70/80 heterodimer;XLF FL;XRCC4(1-140) (Homo sapiens (HeLa);Homo sapiens;Homo …, UniProt P12956;P13010;Q9H9Q4;Q13426 2-609;2-732;1-299;1-140, ||); assay: SEC co-elution and SAXS
Ku70/80 heterodimer;XLF FL;XRCC4(1-140), sequence (P12956 2-609, chain 1 of 4): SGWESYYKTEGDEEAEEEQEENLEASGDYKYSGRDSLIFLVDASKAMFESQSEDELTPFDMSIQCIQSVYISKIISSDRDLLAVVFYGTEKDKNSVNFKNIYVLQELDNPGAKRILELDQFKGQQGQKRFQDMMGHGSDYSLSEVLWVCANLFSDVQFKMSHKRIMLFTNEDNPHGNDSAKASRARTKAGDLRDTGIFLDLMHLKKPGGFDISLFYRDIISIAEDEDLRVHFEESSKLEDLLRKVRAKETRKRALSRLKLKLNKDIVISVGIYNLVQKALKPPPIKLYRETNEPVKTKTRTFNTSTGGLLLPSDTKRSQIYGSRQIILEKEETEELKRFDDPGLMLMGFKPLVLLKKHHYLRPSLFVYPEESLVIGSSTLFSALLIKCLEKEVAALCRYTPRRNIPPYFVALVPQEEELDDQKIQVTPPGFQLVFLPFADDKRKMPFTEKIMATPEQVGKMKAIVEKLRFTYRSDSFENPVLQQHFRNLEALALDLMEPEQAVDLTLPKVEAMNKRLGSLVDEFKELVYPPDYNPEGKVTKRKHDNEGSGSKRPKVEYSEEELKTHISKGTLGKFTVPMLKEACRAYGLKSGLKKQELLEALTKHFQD
Ku70/80 heterodimer;XLF FL;XRCC4(1-140), sequence (P13010 2-732, chain 2 of 4): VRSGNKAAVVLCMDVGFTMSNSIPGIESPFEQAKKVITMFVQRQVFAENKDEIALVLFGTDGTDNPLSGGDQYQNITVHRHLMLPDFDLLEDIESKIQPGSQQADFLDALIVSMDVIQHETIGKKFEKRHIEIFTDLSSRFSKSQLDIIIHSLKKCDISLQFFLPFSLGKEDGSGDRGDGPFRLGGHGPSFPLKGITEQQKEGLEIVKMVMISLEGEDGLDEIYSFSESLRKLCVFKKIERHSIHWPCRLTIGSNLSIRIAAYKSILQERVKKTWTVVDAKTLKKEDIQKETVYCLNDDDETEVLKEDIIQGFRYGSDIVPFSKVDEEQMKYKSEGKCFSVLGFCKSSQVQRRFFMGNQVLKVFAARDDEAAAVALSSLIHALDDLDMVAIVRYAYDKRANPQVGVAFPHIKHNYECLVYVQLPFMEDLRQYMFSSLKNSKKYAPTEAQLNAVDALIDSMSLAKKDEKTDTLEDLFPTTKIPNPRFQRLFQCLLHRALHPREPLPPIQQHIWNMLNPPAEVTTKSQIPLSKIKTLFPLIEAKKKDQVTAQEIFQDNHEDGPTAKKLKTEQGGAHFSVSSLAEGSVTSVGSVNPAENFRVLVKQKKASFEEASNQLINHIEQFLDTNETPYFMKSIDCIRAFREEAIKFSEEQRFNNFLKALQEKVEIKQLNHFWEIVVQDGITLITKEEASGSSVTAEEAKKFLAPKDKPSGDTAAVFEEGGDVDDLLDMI
Ku70/80 heterodimer;XLF FL;XRCC4(1-140), sequence (Q9H9Q4 whole entry, chain 3 of 4): as the sequence (Q9H9Q4 whole entry) above
Ku70/80 heterodimer;XLF FL;XRCC4(1-140), sequence (Q13426 1-140, chain 4 of 4): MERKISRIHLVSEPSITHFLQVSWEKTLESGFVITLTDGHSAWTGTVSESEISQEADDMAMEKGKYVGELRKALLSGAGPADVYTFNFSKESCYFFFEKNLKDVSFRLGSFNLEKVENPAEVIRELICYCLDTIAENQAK

XRCC4 FL;XLF(1-248) = XRCC4 FL;XLF(1-248) (Homo sapiens;Homo sapiens, UniProt Q13426;Q9H9Q4 1-336;1-248, |); assay: tryptophan fluorescence quenching
XRCC4 FL;XLF(1-248), sequence (Q13426 whole entry, chain 1 of 2): as the sequence (Q13426 whole entry) above
XRCC4 FL;XLF(1-248), sequence (Q9H9Q4 1-248, chain 2 of 2): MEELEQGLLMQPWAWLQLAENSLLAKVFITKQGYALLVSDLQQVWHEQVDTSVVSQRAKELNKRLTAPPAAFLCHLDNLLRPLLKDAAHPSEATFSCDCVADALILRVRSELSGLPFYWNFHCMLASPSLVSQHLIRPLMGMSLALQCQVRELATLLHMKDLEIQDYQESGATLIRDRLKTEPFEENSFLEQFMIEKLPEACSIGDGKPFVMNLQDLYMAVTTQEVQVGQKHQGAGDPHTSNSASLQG

XLF FL;XRCC4(1-140), sequence (Q9H9Q4 whole entry, chain 1 of 2): as the sequence (Q9H9Q4 whole entry) above
XLF FL;XRCC4(1-140), sequence (Q13426 1-140, chain 2 of 2): as the sequence (Q13426 1-140, chain 4 of 4) above
XLF(1-224);XRCC4(1-140), sequence (Q9H9Q4 1-224, chain 1 of 2): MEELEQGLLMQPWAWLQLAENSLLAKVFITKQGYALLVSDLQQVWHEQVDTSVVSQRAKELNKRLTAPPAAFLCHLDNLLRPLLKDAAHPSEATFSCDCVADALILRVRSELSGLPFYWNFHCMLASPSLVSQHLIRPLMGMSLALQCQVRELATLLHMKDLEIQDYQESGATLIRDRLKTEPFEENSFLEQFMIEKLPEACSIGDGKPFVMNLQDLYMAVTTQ
XLF(1-224);XRCC4(1-140), sequence (Q13426 1-140, chain 2 of 2): as the sequence (Q13426 1-140, chain 4 of 4) above
XLF(1-248), sequence (Q9H9Q4 1-248): as the sequence (Q9H9Q4 1-248, chain 2 of 2) above

B1: 40-bp DNA (dsDNA)
DNA 1: GGATACACAACAGACCGCAACACTCAGATTACTTTTCGCC
DNA 2: GGCGAAAAGTAATCTGAGTGTTGCGGTCTGTTGTGTATCC
With B1 the binding result (XLF FL;XRCC4(1-140)) was “binds”, the binding result (XLF(1-224);XRCC4(1-140)) was “binds” and the Kd (XLF(1-248)) was 2900 ± 200 nM. For the same binder, the Kd (XRCC4 FL) was 950 ± 50 nM, the Kd (XLF FL) was 1600 ± 100 nM and the binding result [1] was “binds”. For the same binder, the Kd (XRCC4 FL;XLF(1-248)) was 700 ± 50 nM.
